Patent US10421803 (dated 2019)

Target: HIV-1 YU2 gp120 (HIV-1, UniProt P35961)
Experiment: SPR, bivalent

Sequence of HIV-1 YU2 gp120 (P35961 32-671): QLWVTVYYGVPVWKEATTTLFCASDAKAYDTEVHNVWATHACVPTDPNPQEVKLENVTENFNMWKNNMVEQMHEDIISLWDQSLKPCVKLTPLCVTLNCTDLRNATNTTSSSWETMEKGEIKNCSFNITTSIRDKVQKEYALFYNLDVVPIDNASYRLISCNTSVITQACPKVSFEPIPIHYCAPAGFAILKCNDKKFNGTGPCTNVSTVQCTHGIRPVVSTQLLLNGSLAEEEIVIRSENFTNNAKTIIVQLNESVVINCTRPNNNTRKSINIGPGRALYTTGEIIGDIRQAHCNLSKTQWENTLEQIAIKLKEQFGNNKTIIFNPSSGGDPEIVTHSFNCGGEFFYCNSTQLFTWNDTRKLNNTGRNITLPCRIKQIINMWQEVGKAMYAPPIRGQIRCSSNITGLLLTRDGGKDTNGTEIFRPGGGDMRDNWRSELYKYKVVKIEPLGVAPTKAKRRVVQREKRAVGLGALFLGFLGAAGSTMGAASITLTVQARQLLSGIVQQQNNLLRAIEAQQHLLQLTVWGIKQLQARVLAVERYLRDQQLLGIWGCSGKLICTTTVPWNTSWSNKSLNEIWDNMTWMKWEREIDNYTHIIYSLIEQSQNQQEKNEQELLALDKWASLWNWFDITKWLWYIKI

B1: 8ANC195 IgG (antibody, V domains shown)
VH: QIHLVQSGTEVKKPGSSVTVSCKAYGVNTFGLYAVNWVRQAPGQSLEYIGQIWRWKSSASHHFRGRVLISAVDLTGSSPPISSLEIKNLTSDDTAVYFCTTTSTYDKWSGLHHDGVMAFSSWGQGTLISVSA
VL: DIQMTQSPSTLSASIGDTVRISCRASQSITGNWVAWYQQRPGKAPRLLIYRGAALLGGVPSRFSGSAAGTDFTLTIGNLQAEDFGTFYCQQYDTYPGTFGQGTKVEV
Kd: 82 nM
